# Molecular target: cyXR, xanthorhodopsin from an Antarctic filamentous cyanobacterium (genus Pseudanabaena) (Pseudanabaena (Antarctic MAG, Dry Valleys))
# Assay: cryo-EM structure
substance,measurement,value
"cyXR, xanthorhodopsin from an Antarctic filamentous cyanobacterium (genus Pseudanabaena) (natural protein)",stoichiometry N,5

# From paper doi:10.1101/2025.06.10.658827
